{
  "source": "the RNAGym collection of RNA variant scans (doi:10.1073/pnas.2313332121)",
  "parents": {"B1": {"name": "TPR t1 (parent)", "chain": "GACCAAUCUGCCCUCAGAGCUCGAGAACAUCUUCGGAUGCAGAGGAGGCAGGCUUCGGUGGCGCGAUAGCGCCAACGUCCUCAACCUCCAAUGCAUCCCACCACAUGAUGAUGCCUGAAGAGCCUUGGUUUUUUG"}},
  "data": [
    {"variants_of": "B1", "assay": "polymerase ribozyme fitness, log enrichment relative to wild type (log ratio); higher = more active; in vitro selection for triplet polymerase activity", "method_in_brief": "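Only genotypes with ≥10 input reads and ≥1 read per output were kept after Illumina sequencing of input and output libraries. These libraries were PCR-built, transcribed mutants of each subunit of a heterodimeric triplet polymerase ribozyme, each put through one triplicate in vitro selection round with frozen incubation at −7 °C, gel excision of extended constructs, streptavidin-bead capture and RT-PCR. Fitness is a logarithmic ratio of genotype enrichment to wild-type enrichment, from inverse-variance-weighted replicate averages, with the logarithm in base 2.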", "values": [
      {"variant": "GACCAAUCUGCUCUCAGAGCUCGAGAACAUCUUCGGCUGCAGAGGUGGCAGGCUUCGGUGGAGCGAUAGCGCCAACGUCCUCAACCUCCAAUGCAUCCCACCACAUGAUGAUGCCUGAAGAGCCUUGGUUUUUUG", "polymerase ribozyme fitness (log ratio)": -2.96},
      {"variant": "GACCAAUCUGCUCUCAGAGCUCGAGAACAUCUUCGGAUGCGGAGGAGACAGGCUUCAGUGGCGCGAUAGCGCCAACGUCCUCAACUUCCAAUGCAUCCCACCACAUGAUGAUGCCUGAAGAGCCUUGGUUUUUUG", "polymerase ribozyme fitness (log ratio)": -2.63},
      {"variant": "GACCAAUCUGCUCUCAGAGCUCGAGUACAUCUUGGGAUGCAGAGGAGGCUGGCUUCGGUGGCGCGAUAGCGCCAACGUUCUCCAGCUCCAAUGCAUCCCACCACAUGAUACUGCCUGAAGAGCCUUGGUUUUUUG", "polymerase ribozyme fitness (log ratio)": -7.36},
      {"variant": "GACCAAUCUGCUCUCAGAGCUCGAGUACAUCUUAGGAUGCAGAGGAGGCAGGCUUCGGUGGCACGAUAGCGCCAACGUCCUCAACCUCCCAUGCAUCCCACCAUAUGAUGAUCCCUGAAGAGCCUUGGUUUUUUG", "polymerase ribozyme fitness (log ratio)": -6.57},
      {"variant": "GACCAAUCUGCUCUCAGAGCUCGAGAACGUCUUCGGAUGCAGAGGAGGCUGGCUUCGGUGGCGCGAUAGCGCCAACGUCCUCAACCUCCAGUGCAUCCCACCACAUGAUGAUGCCUGAAGAGCCUUGGUUUUUUG", "polymerase ribozyme fitness (log ratio)": -3.08},
      {"variant": "GACCAAUCUGCUCUCAGAGCUCGAGACCAUCUUCGGAUGCAGAGGAGGAAGGCUUCGGUGACGCGAUAGCGCCAACGUCCUCAACCUCCAAUGCAUCCCACCACAAGAUGAUGCUUGAAGAGCCUUGGUUUUUUG", "polymerase ribozyme fitness (log ratio)": -4.69},
      {"variant": "GACCAAUCUGCUCUCAGAGCUCGAGAACAUCUUCGGAUGCAGGGGAGGCAGGCUUCGGUGGCGCGAUAGCGUCAACGUCCUCAACCUCCAAUGCAUCCCACCACAUGAUGAUGCCUGAAGAGACUUGGUUUUUUG", "polymerase ribozyme fitness (log ratio)": 0.368},
      {"variant": "GACCAAUCUGCUCUCAGAGCUCGAGAACAUCUUCGGAUGCUGAGGAGGCAGGCUUCGGUGGCGCGAUAGCGGCAACGUCCUCAACCUCCAAUGCAUCCCACCACAUGAUGAUGCCUGAAGAGCCUUGGUUUUUUG", "polymerase ribozyme fitness (log ratio)": -1.1},
      {"variant": "GACCAAUCUGCUCUCAGAGCUCGAGACCAUCUUCGGAUGCAGAGGAGGCAGGCUUCGGUGGCGCGAUAGCGCCAACGUCCUCAACCUCCAAUGCUUCCCACCACAUGAUGAUGCCUGAAGAGCCAUGGUUUUUUG", "polymerase ribozyme fitness (log ratio)": -3.79},
      {"variant": "GACCAAUCUGCUCUCAGAGCUCGAGAACAUCUUCGGCUGCAGAGGAGGCAGGCUUCGGUGGCGCGAUAGCGCCAACGUCCUCAACCUCCAAUGGAUCCCACCACAUGAUAAUGCCUGAAGAGCCUUGGUUUUUUG", "polymerase ribozyme fitness (log ratio)": -3.55},
      {"variant": "GACCAAUCUGCUCUCAGAGCUCGAGAACGUCUUCGGAUGCAGAGGAGGCAGGCUUCGGUGGCGCGAUAGCGCCAACGUCCUCAACCUCCAAUGCAUCCCACCACAUGAUGAUGCCUGAAGAGCCUUGGUUUUUUG", "polymerase ribozyme fitness (log ratio)": -1.25},
      {"variant": "GACCAAUCUGCUCUCAGAGCUCGAGAACUUCUUCGGAUGCAGAGGAGGCAGGCUUCGGUGGCGCGAUAGCGCCAACGUCCUCAACCUCCAAUGCAUCCCACCACAUGAUGAUGCCUGAAGAGCCUUGGUUUUUUG", "polymerase ribozyme fitness (log ratio)": -2.12},
      {"variant": "GACCAAUCUGCUCUCAGAGCUCGAGUAUAUCUUCGGAUGCAGAGGAGGCAGGCUUCGGUGGCGCGAUAGCGUCAACGUCCUCAACCUCCAAUGCAUCCCACCACAUGAUGAUGCCUGAAGAGGCUUGGUUUUUUG", "polymerase ribozyme fitness (log ratio)": -5.39},
      {"variant": "GACCAAUCUGCUCUCAGAGCUCGAGAACAUCUUCGGAUGCAGUGGAGGCAGGCUUCGGUGGCGCGAUAGCGCCAACAUCCUCAAUCUCCAAUGCAUCCCACCACAUGAUGAAGCCUGAAGAGCCUUGGUUUUUUG", "polymerase ribozyme fitness (log ratio)": -0.51},
      {"variant": "GACCAAUCUGCUCUCAGAGCUCGAGUACAUCUUCGGAUGCAGAGGAGGCAGGCUUCGGUGGCGCGAUAGCGCCAACGUCCUCAACCUCCAAUGUAUCCCACCACAUGAUGAUGCCUGGAGAGCCUUGGUUUUUUG", "polymerase ribozyme fitness (log ratio)": -2.71},
      {"variant": "GACCAAUCUGCUCUCAGAGCUCGAGAACAUCUUCGGAUGCAGAGGCGGCAGGCUUCGGUGGCGCGAUAGCGCCAACGUCCUCAACCUCCAAUGCAUCCCGCCACAUGAUGAUGCCUGAAGAGCCUUGGUUUUUUG", "polymerase ribozyme fitness (log ratio)": -3.74},
      {"variant": "GACCAAUCUGCUCUCAGAGCUCGAGUACAUCGUCGGAUGCAGAGGCGUCGGGCUUCGGUGGCGCGAUAGCGCCUACGUCCUCAACCUCCAAUGGAUCCCACCACAUGAUGAUGGCUGAAGAGCCUUGGUUUUUUG", "polymerase ribozyme fitness (log ratio)": -7.12},
      {"variant": "GACCAAUCUGCUCUCAGAGCUCGAGUACAUCUUCGGAUCCAGAGGAGGCAGGCUUCGGUGGCGCGAUAGCGCCAACGUCCUCAACCUCCAAUGCAUCCCACCACAUGAUAAUGCCUGAAGAGCCUUGGUUUUUUG", "polymerase ribozyme fitness (log ratio)": -5.25},
      {"variant": "GACCAAUCUGCUCUCAGAGCUCGAGAACAUCUUCGGAUGCAGAGGCGGCAGGGUUCGGUGGCGCGAUAGCGCCAACGUCCUCAACCUCCAAUGCAUCCCACCACAAGAUGAUGCCUGAAGAGCCUUGGUUUUUUG", "polymerase ribozyme fitness (log ratio)": -0.663},
      {"variant": "GACCAAUCUGCUCUCAGAGCUCGAGAACAUCUUCGGGUGCAGAGGAGGCAGGCUUCGGUGGCGCGAUAGCGCCAACGUCCUCAACCUCCAAUGCGUCCCACCACAUGAUGAUGCCUGAAGAGCCUUGGUUUUUUG", "polymerase ribozyme fitness (log ratio)": -0.754},
      {"variant": "GACCAAUCUGCUCUCAGAGCUCGAGAACAUCUUCGGAUGCAGAGGAGGCUGGCUUCGGUGGCGCGAUAGCGCCAACGUCCUCAACCUCCAAUGCAUCCCACCACAUGAUGAUGCUUGAAGAGCCUUGGUUUUUUG", "polymerase ribozyme fitness (log ratio)": -3.47}
    ]}
  ]
}
